Key:
HLA-A*02:06 = assay: IEDB peptide-MHC binding, purified MHC/competitive/radioactivity; filed as Kd, often an IC50 or EC50 that approximates it; ≥ and ≤ were set here for values at or beyond the usual limits of such assays
HLA-B*08:01 = assay: as above
HLA-B*07:02 = assay: as above
HLA-A*01:01 = assay: as above
HLA-B*40:01 [1] = assay: as above
HLA-A*30:01 = assay: as above
HLA-A*23:01 = assay: as above
HLA-A*02:02 = assay: as above; conditions: source organism: Vaccinia virus WR
HLA-A*02:03 = assay: as above; conditions: source organism: Vaccinia virus WR
HLA-A*03:01 [2] = assay: as above; conditions: source organism: Dengue virus 2 Peru/IQT2913/1996
HLA-A*24:02 = assay: as above
HLA-A*29:02 = assay: as above
HLA-A*33:01 = assay: as above; conditions: source organism: Dengue virus 1 Brazil/97-11/1997
HLA-A*32:01 = assay: as above
HLA-B*53:01 = assay: as above; conditions: source organism: Dengue virus 2 Jamaica/1409/1983
HLA-A*26:01 [3] = assay: as above
HLA-A*30:02 = assay: as above; conditions: source organism: Dengue virus 4 Philippines/H241/1956
HLA-A*26:01 [4] = assay: IEDB peptide-MHC binding, purified MHC/direct/fluorescence; filed as Kd, often an IC50 or EC50 that approximates it; ≥ and ≤ were set here for values at or beyond the usual limits of such assays; conditions: source organism: Influenza A virus (A/swine/Italy/1654-1/99(H1N2))
HLA-A*11:01 = assay: as above; conditions: source organism: Rickettsia prowazekii
HLA-A*69:01 = assay: as above; conditions: source organism: Rickettsia prowazekii
HLA-A*03:01 [5] = assay: as above; conditions: source organism: Rickettsia prowazekii
HLA-B*58:01 = assay: as above; conditions: source organism: Rickettsia prowazekii
HLA-A*02:01 = assay: as above; conditions: source organism: Rickettsia prowazekii
HLA-B*15:01 = assay: as above; conditions: source organism: Rickettsia prowazekii
HLA-A*31:01 = assay: as above; conditions: source organism: Rickettsia prowazekii
HLA-B*40:01 [6] = assay: as above; conditions: source organism: Rickettsia prowazekii
[7] = source organism: Dengue virus 1 Brazil/97-11/1997
[8] = source organism: Dengue virus 2 Jamaica/1409/1983
[9] = source organism: Dengue virus 3 Martinique/1243/1999
[10] = source organism: Dengue virus 4 Philippines/H241/1956
[11] = source organism: Vaccinia virus WR
[12] = source organism: Dengue virus 2 Peru/IQT2913/1996
[13] = source organism: Mammarenavirus juninense
[14] = source organism: Mammarenavirus tacaribeense
[15] = source organism: Dengue virus 4 Dominica/814669/1981
[16] = source organism: Mammarenavirus guanaritoense
[17] = source organism: Mammarenavirus brazilense

MLLNRFTMA
Kd (HLA-A*02:06; [7]): 5.12 nM | Kd (HLA-B*08:01; [7]): 10.2 nM

SPLLLTSSQQ
Kd (HLA-B*07:02; [8]): 1220 nM

RPLKEKEENL
Kd (HLA-B*08:01; [8]): 1820 nM

EKEENMVKSL
Kd (HLA-B*08:01; [9]): 10600 nM

YTQMCDHRL
Kd (HLA-A*01:01; [7]): 5710 nM

MTDKTPVHS
Kd (HLA-A*01:01; [10]): 6570 nM

LEFEALGFMN
Kd (HLA-B*40:01 [1]; [7]): 2660 nM

LSTRDGEPLM
Kd (HLA-A*30:01; [10]): 1630 nM

MWKQITPEL
Kd (HLA-A*23:01; [8]): 170 nM

EALYYVHSL
Kd (HLA-A*02:02): 14200 nM | Kd (HLA-A*02:06; [11]): 14800 nM | Kd (HLA-B*08:01; [11]): 2.11 nM | Kd (HLA-A*02:03): 5770 nM

IILWFFNAM
Kd (HLA-B*08:01; [11]): 5230 nM

YPFFRKLVL
Kd (HLA-B*08:01; [11]): 5.86 nM

HMIVSRQEK
Kd (HLA-A*03:01 [2]): 21.2 nM | Kd (HLA-A*30:01; [12]): 17.6 nM

LLLMRTSWA
Kd (HLA-B*08:01; [9]): 10.3 nM

PYIGSRSQI
Kd (HLA-A*23:01; [13]): 312 nM | Kd (HLA-A*24:02; [13]): 1080 nM | Kd (HLA-A*29:02; [13]): ≥ 21000 nM

GLRNSLLVA
Kd (HLA-A*30:01; [11]): 93.5 nM

SFYCDPKRFF
Kd (HLA-A*23:01; [14]): 491 nM | Kd (HLA-A*24:02; [14]): 1980 nM | Kd (HLA-A*29:02; [14]): 156 nM

FMNEDHWFSR
Kd (HLA-A*33:01): 13.2 nM | Kd (HLA-A*32:01; [7]): 7080 nM

TEDDLQNEEL
Kd (HLA-B*40:01 [1]; [15]): 136 nM

IMAVLFVVTL
Kd (HLA-B*08:01; [10]): 5420 nM

PRRCMKPVIL
Kd (HLA-B*08:01; [8]): 2470 nM

EPPFGDSYII
Kd (HLA-B*53:01): 363 nM

GYFTQTAGPW
Kd (HLA-A*23:01; [7]): 1220 nM | Kd (HLA-A*24:02; [7]): ≥ 70300 nM

AYEHKNRSRL
Kd (HLA-A*23:01; [16]): 10200 nM | Kd (HLA-A*24:02; [16]): ≥ 26500 nM | Kd (HLA-A*29:02; [16]): ≥ 20900 nM

LTHSINALI
Kd (HLA-A*23:01; [17]): 1010 nM | Kd (HLA-A*24:02; [17]): 6720 nM | Kd (HLA-A*29:02; [17]): 12800 nM

LARWGSFKK
Kd (HLA-A*30:01; source organism: Dengue virus 1 Singapore/S275/1990): 24.4 nM

KIKSPIYYK
Kd (HLA-A*30:01; source organism: Vaccinia virus Copenhagen): 0.932 nM

KVRPTFAAG
Kd (HLA-A*30:01; [8]): 4.4 nM

ELCEDTMTY
Kd (HLA-A*26:01 [3]; [7]): 1740 nM

VVRPPFNML
Kd (HLA-B*07:02; [10]): 20.5 nM

AGPFSQHNY
Kd (HLA-A*30:02): 472 nM

EKWKRQLNSL
Kd (HLA-B*08:01; [10]): 251 nM

HLAIMAVFKM
Kd (HLA-A*26:01 [3]; [10]): 9580 nM

RTKFQNRAK
Kd (HLA-A*30:01; [11]): 0.159 nM

RQWFFDLPL
Kd (HLA-A*32:01; [9]): 1.17 nM | Kd (HLA-B*40:01 [1]; [9]): 42 nM

ETFKVIGGW
Kd (HLA-A*26:01 [4]): 182 nM

GAKIGCINV
Kd (HLA-A*30:01; [11]): 9.11 nM

HSRASPRIG
Kd (HLA-A*30:01; [11]): 0.931 nM

RLKSAVCYK
Kd (HLA-A*30:01; [11]): 0.175 nM

KIFEYGFTF
Kd (HLA-A*11:01): 377 nM | Kd (HLA-A*69:01): 4280 nM | Kd (HLA-A*03:01 [5]): 6020 nM | Kd (HLA-B*58:01): 255 nM | Kd (HLA-A*02:01): 106 nM | Kd (HLA-B*15:01): 229 nM | Kd (HLA-A*31:01): 196 nM | Kd (HLA-B*40:01 [6]): 4350 nM

MLIPKSYAG
Kd (HLA-B*08:01; [15]): 114 nM

GLFPVSIPIT
Kd (HLA-A*30:01; [12]): 15900 nM

LQLKGMSYSM
Kd (HLA-B*08:01; [8]): 70 nM

RPRWLDARV
Kd (HLA-B*07:02; [15]): 1.7 nM

IPLQWIASA
Kd (HLA-B*07:02; [9]): 88.4 nM

LTMKNKAWM
Kd (HLA-A*26:01 [3]; [9]): ≥ 45300 nM

GRTLRVLKMV
Kd (HLA-A*30:01; [7]): 634 nM

HTSARLHSL
Kd (HLA-A*30:01; [11]): 4.14 nM

LGRNKKPRL
Kd (HLA-B*08:01; [9]): 265 nM

GRLITANPVV
Kd (HLA-A*30:01; [9]): 1430 nM
